The target of test [1] is T1, Recombinant human IL-2 (human, UniProt P60568 21-153).
T1 construct: also called hIL-2; recombinant IL-2 (Acro Biosystems, IL2-H4113)
Nature of the test: ELISA, recombinant human IL-2 coated, antibody titrated, anti-human IgG-Peroxidase. The method, then:
Recombinant human IL-2 was coated on Maxisorp ELISA plates (Invitrogen, 44-2404-21) at 5 µg/ml, 4° C. over night. After 2 hours blocking, antibodies A, B and C were incubated in a serial dilution starting from 10 µg/ml in assay buffer. The antibodies were detected with anti-human IgG-Peroxidase (Sigma, A0170). After addition and blockade of the […] substrate, absorption was read ($A450$-$A570$ at plate reader, Spectramax iD3). $EC50$ values were obtained by plotting Absorbance vs. log(Concentration).
(In general: An ELISA detects its analyte on a solid surface through an enzyme-linked reagent.)

For test [2], the target named is T1, Recombinant human IL-2. Briefly: Octet BLI, antibody immobilised on amine reactive sensors, IL-2 in solution. How it is done: (§1) Antibody A, B or C were immobilized on amine reactive (2nd Generation) sensors (ForteBio, 18-5092). Association (600s) and dissociation (900s) of a dilution series of recombinant IL-2 (Acro Biosystems, IL2-H4113) were measured on the antibody-coated biosensors on an Octet-System (Octet RED, ForteBio). K_D values were obtained by fitting the kinetics data with the ForteBio Data Analysis Software (8.2).
(In general: In BLI a coated tip is dipped into the sample, and binding shifts an interference pattern.)

Test [3] addresses T1, Recombinant human IL-2. Nature of the test: Octet BLI, antibody immobilised on amine reactive sensors, IL-2 in solution; Octet, free antibody B against recombinant hIL-2: weak binding, KD 269.8 nM. The method, then: as §1

For orientation: EC50 means the concentration that produces a half-maximal response. Broadly, the Kd is the constant that tells how readily two partners part at equilibrium.

T1 sequence (P60568 21-153 limits assumed): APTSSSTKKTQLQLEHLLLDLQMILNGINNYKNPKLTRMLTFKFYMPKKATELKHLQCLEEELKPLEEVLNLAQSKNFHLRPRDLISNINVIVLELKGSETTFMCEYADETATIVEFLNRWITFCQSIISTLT

B1: Antibody A (antibody, human IgG1, kappa, N297A, V domains shown)
VH: EVQLVQSGAEVKKPGESLKISCKGSGYAFTNYLIEWVRQMPGKGLEWMGVINPGSGGTNYNEKFKGQVTISADKSISTAYLQWSSLKASDTAMYYCARWRGEGYYAYFDVWGQGTTVTVSS
VL: AIRLTQSPSSFSASTGDRVTITCKASQSVDYQGDSYMNWYQQKPGKAPKLLIYAASNLESGVPSRFSGSGSGTDFTLTISSLQSEDFATYYCQQSNEDPYTFGGGTKVEIKR
notes: Humanized full-length human IgG1 kappa; The printed heavy chain carries the N297A Fc
With B1, the EC50 with Recombinant human IL-2 [1] was found to be 0.37 nM. Also, in the test with Recombinant human IL-2 [2], the dissociation constant (Kd) came out at 2.1 nM.

B2: Antibody C (antibody, human IgG1, kappa, V domains shown)
VH: EVQLVQSGAEVKKPGESLKISCKGSGYSFTNFYIHWVRQAPGQRLEWMGSIYPNYGDTAYNQKFKDRFVFSLDTSVSTAYLQISSLKAEDTAVYYCARGYSYAMDYWGQGTTVTVSS
VL: DIQMTQSPSSVSASVGDRVTITCSASQGISGDLNWYQQKPGKAPKLLIYHTSSLHSGVPSRFSGSGSGTDFTLTISSLQPEDFATYYCQYYSKDLLTFGGGTKLEIKR
notes: Control antibody, full-length human IgG1 kappa
Consider B2, for which the dissociation constant Kd with Recombinant human IL-2 [2] was more than 1000 nM.

B3: Antibody B (antibody, human IgG1, kappa, V domains shown)
VH: QVQLVESGGGVVQPGRSLRLSCAASGYTFSSYLIEWVRQAPGKGLEWVAVINPGSGGTNYADSVKGRFTISADKSKNTAYLQMNSLRAEDTAVYYCARWRGDGYYAYFDVWGQGTTVTVSS
VL: EIVLTQSPATLSVSPGERATLSCRASQSVSYDGDSYMNWYQQKPGQAPRLLIYAASNLASGIPARFSGSGSGTEFTLTISSLQSEDAAVYYCQQSNEDPYTFGGGTKVEIKR
notes: Full-length human IgG1 kappa
Turning to B3, the dissociation constant Kd with Recombinant human IL-2 [3] amounted to 270 nM.

The values above are taken from patent US11773160 (ANAVEON, dated 2023).
